According to US20210162067A1, “Composition and Methods of Controllable Co-Coupling Polypeptide Nanoparticle Delivery System for Nucleic Acid Therapeutics” (SIRNAOMICS, INC., priority 2018, published 2021):
No end group written: not given here.

Type: physicochemical
Procedure: The structure of the HKC2 was characterized by HPLC and mass spectroscopy, and a major peak at retention time at 8.053 min with a purity 90.0% was observed by RPHPLC. In the ESI-MS spectrum (FIG. 2B), a molecular ion peak was observed as double charged ion [M+2H]^2+. Similarly, triple charged, 4+ and 5+ species were also observed. It provided a molecular weight of 2683 Da, which is in good agreement with the theoretical value. […] This is a plus for its formulation with the siRNA in aqueous medium.

With “K(HHHK)4CSSC (KHHHKHHHKHHHKHHHKCSSC; also: branched peptide, cross-linked through intermolecular disulfide bonds between cysteines into polymer (HKC2))” the solubility in water was “readily soluble in water”.
